In assay [1] the target is T1, human FcγRIIaR extracellular domain, C-terminal His-tag (human, UniProt P12318 34-217).
T1 construct: also called human FcγRIIa (type R); FcgRIIaR
T1 chain: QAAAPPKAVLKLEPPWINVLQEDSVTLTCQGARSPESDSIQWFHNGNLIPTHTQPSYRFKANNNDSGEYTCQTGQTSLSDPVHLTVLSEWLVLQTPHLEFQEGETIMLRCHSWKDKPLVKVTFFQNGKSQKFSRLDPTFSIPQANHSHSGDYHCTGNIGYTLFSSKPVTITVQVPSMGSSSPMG
Description: SPR (Biacore); KD of SG1 / KD of variant.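 Also: relative to parent M103205H795-SG1 carrying the SG1 human heavy chain constant region.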

Assay [2] has as its target T2, human FcγRIIaH extracellular domain, C-terminal His-tag (human, UniProt P12318 34-217).
T2 construct: also called human FcγRIIa (type H); FcgRIIaH
T2 sequence: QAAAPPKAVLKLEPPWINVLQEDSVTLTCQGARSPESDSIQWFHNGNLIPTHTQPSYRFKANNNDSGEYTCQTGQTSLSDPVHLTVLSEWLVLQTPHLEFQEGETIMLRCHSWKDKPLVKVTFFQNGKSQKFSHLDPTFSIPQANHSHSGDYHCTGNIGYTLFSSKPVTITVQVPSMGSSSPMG
Description: SPR (Biacore), antibody captured, FcgR analyte. (SPR reads the build-up and loss of mass on a sensor chip optically.)

Assay [3] deals with T3, cynomolgus monkey FcγRIIa1 extracellular domain, C-terminal His-tag (cynomolgus monkey).
T3 construct: also called cyno FcγRIIa1; cynoFcgRIIa1
T3 chain: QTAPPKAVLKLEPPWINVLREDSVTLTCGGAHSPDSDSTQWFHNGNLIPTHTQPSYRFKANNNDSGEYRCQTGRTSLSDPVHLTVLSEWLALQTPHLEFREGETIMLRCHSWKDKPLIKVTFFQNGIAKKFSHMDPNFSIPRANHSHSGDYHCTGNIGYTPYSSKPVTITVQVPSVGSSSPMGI
The experiment in a line: SPR (Biacore), antibody captured, FcgR analyte.

Assay [4] has as its target T1, human FcγRIIaR extracellular domain, …. The experiment in a line: SPR (Biacore), antibody captured, FcgR analyte.
Assay [5] addresses T4, cynomolgus monkey FcγRIIb extracellular domain, C-terminal His-tag (cynomolgus monkey).
T4 construct: also called cyno FcγRIIb; cynoFcγRIIb
T4 chain: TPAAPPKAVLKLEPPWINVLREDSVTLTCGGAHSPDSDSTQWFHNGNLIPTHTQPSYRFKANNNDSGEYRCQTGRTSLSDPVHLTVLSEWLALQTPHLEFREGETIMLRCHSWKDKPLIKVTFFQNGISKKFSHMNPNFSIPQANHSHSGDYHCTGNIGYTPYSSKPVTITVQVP
The experiment in a line: SPR (Biacore), antibody captured, FcgR analyte.

The target in assay [6] is T5, cynomolgus monkey FcγRIIa2 extracellular domain, C-terminal His-tag (cynomolgus monkey).
T5 construct: also called cyno FcγRIIa2; cynoFcgRIIa2
T5 chain: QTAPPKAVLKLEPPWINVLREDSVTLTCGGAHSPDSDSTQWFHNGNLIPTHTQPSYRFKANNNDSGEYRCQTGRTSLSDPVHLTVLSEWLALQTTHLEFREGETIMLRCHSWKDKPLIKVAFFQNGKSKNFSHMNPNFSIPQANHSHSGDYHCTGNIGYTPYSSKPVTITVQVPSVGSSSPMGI
Description: SPR (Biacore), antibody captured, FcgR analyte.

Assay [7] concerns the target T6, human FcγRIIb extracellular domain, C-terminal His-tag (human, UniProt P31994 43-217).
T6 construct: also called human FcgRIIb; FcgRIIb
T6 sequence: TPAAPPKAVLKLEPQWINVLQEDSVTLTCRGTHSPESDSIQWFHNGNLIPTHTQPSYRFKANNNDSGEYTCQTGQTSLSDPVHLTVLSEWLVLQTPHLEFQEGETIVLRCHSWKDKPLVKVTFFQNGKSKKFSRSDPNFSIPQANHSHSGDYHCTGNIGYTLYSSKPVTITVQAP
The experiment in a line: SPR (Biacore), antibody captured, FcgR analyte.

Assay [8] addresses T7, cynomolgus monkey FcγRIIIaS extracellular domain, C-terminal His-tag (cynomolgus monkey, UniProt Q8SPW2 21-206 at identity 1.00)).
T7 construct: also called cyno FcγRIIIaS; cynoFcγRIIIaS
T7 chain: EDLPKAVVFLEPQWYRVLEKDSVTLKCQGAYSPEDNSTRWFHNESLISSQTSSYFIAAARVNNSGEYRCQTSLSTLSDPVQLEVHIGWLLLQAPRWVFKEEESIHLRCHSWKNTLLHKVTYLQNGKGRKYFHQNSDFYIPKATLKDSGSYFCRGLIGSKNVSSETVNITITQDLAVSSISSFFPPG
The experiment in a line: SPR (Biacore), antibody captured, FcgR analyte.

For assay [9], the target named is T8, cynomolgus monkey FcγRIIa3 extracellular domain, C-terminal His-tag (cynomolgus monkey).
T8 construct: also called cyno FcγRIIa3; cynoFcgRIIa3
T8 chain: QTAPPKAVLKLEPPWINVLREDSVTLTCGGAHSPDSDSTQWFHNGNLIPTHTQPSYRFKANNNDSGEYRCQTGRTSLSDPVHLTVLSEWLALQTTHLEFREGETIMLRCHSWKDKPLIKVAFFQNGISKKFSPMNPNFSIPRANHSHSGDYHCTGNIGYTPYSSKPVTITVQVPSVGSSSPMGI
Description: SPR (Biacore), antibody captured, FcgR analyte.

These results are taken from US20200317768A1 (published 2020).

B1: MS_M103205H795-SG1/M103202L889-SK1 (antibody, human IgG1, kappa)
heavy: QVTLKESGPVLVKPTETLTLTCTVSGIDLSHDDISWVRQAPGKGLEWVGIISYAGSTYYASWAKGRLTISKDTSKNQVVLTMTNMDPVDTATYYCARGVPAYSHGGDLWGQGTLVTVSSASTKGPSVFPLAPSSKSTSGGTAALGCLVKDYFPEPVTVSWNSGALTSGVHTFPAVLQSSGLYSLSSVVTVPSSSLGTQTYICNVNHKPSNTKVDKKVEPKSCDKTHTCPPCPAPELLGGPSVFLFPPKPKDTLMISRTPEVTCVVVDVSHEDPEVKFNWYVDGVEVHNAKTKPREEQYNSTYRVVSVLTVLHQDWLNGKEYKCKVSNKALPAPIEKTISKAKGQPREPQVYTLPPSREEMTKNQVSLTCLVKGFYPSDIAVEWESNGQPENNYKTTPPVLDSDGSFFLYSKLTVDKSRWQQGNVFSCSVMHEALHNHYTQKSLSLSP
light: DIVMTQSPATLSLSPGERATLSCTSSQSVYHANWLSWFQQKPGQPPKLLIYWASTLAYGVPSRFSGSGSGTDFTLTISSLQPEDAATYYCAGGYGGGRYAFGQGTKVEIKRTVAAPSVFIFPPSDEQLKSGTASVVCLLNNFYPREAKVQWKVDNALQSGNSQESVTEQDSKDSTYSLSSTLTLSKADYEKHKVYACEVTHQGLSSPVTKSFNRGEC
notes: Parent of the Fc variants; also called MS1032LO06-SG1
What is called Kd is the equilibrium constant for the complex coming apart. B1: the “KD fold (SG1 = 1)” value in assay [1] stood at 1 fold. Further, the Kd in [2] was 690 nM; in assay [3] it was 3200 nM; in assay [4] it was 1100 nM; in assay [5], 1800 nM; in assay [6] it was 5100 nM; in [7], 4600 nM. The Kd was determined as 360 nM in assay [8] and 17000 nM in assay [9].

B2: M103205H795-MY050/M103202L889-SK1 (antibody, human IgG1, kappa)
heavy: QVTLKESGPVLVKPTETLTLTCTVSGIDLSHDDISWVRQAPGKGLEWVGIISYAGSTYYASWAKGRLTISKDTSKNQVVLTMTNMDPVDTATYYCARGVPAYSHGGDLWGQGTLVTVSSASTKGPSVFPLAPSSKSTSGGTAALGCLVKDYFPEPVTVSWNSGALTSGVHTFPAVLQSSGLYSLSSVVTVPSSSLGTQTYICNVNHKPSNTKVDKKVEPKSCDKTHTCPPCPAPELLNGPSVFLFPPKPKDTLMISRTPEVTCVVVDVAEEDPEVKFNWYVDGVEVHNAKTKPREEQYNSTYRVVSVLTVLHQDWLNGKEYKCKVSNKALPAPIEKTISKAKGQPREPQVYTLPPSREEMTKNQVSLTCLVKGFYPSDIAVEWESNGQPENNYKTTPPVLDSDGSFFLYSKLTVDKSRWQQGNVFSCSVMHEALHNHYTQKSLSLSP
light: DIVMTQSPATLSLSPGERATLSCTSSQSVYHANWLSWFQQKPGQPPKLLIYWASTLAYGVPSRFSGSGSGTDFTLTISSLQPEDAATYYCAGGYGGGRYAFGQGTKVEIKRTVAAPSVFIFPPSDEQLKSGTASVVCLLNNFYPREAKVQWKVDNALQSGNSQESVTEQDSKDSTYSLSSTLTLSKADYEKHKVYACEVTHQGLSSPVTKSFNRGEC
notes: Substitutions introduced into M103205H795-SG1; expressed with M103202L889-SK1 as light chain
As for B2, the “KD fold (SG1 = 1)” value in [1] was 0.7 fold. The Kd in assay [2] was determined as 2100 nM; in [3], 4300 nM; in assay [4] it was 1500 nM; in assay [5], 1400 nM; in [6], 4200 nM; in assay [7], 750 nM. The Kd in assay [8] is 1700 nM; in assay [9], 19000 nM.

B3: M103205H795-MY001/M103202L889-SK1 (antibody, human IgG1, kappa)
heavy: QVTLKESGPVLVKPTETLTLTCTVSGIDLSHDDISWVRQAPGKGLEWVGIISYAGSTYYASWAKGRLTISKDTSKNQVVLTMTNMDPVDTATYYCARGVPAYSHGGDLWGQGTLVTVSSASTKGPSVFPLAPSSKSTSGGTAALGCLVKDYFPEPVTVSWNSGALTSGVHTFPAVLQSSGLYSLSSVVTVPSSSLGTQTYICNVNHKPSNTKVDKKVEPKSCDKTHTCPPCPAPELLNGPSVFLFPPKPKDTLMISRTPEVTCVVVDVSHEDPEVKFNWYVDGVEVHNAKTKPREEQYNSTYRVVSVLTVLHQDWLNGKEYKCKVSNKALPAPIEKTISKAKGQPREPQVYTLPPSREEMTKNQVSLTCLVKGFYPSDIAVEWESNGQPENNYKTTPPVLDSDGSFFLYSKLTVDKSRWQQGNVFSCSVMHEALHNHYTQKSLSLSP
light: DIVMTQSPATLSLSPGERATLSCTSSQSVYHANWLSWFQQKPGQPPKLLIYWASTLAYGVPSRFSGSGSGTDFTLTISSLQPEDAATYYCAGGYGGGRYAFGQGTKVEIKRTVAAPSVFIFPPSDEQLKSGTASVVCLLNNFYPREAKVQWKVDNALQSGNSQESVTEQDSKDSTYSLSSTLTLSKADYEKHKVYACEVTHQGLSSPVTKSFNRGEC
notes: as for B2
As for B3, the “KD fold (SG1 = 1)” value in assay [1] amounted to 0.1 fold. For the same molecule, the Kd in assay [2] amounted to 32 nM; in assay [3] it was 29000 nM; in assay [4], 8200 nM; in assay [5], 1800 nM; in assay [6], 3600 nM; in [7], 7700 nM. The Kd in [8] stood at 1200 nM; in assay [9], 15000 nM.

B4: M103205H795-MY048/M103202L889-SK1 (antibody, human IgG1, kappa)
heavy: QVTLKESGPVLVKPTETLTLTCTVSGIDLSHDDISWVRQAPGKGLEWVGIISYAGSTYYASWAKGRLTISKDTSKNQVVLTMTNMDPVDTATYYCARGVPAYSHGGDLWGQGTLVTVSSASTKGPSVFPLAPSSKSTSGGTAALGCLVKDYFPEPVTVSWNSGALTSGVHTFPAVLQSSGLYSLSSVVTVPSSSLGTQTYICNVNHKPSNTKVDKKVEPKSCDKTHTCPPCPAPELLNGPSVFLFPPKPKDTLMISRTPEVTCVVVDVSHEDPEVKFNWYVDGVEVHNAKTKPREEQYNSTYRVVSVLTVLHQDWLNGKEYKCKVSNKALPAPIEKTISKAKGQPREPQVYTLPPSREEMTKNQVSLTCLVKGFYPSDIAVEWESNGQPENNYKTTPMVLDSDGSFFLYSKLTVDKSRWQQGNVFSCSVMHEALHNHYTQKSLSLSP
light: DIVMTQSPATLSLSPGERATLSCTSSQSVYHANWLSWFQQKPGQPPKLLIYWASTLAYGVPSRFSGSGSGTDFTLTISSLQPEDAATYYCAGGYGGGRYAFGQGTKVEIKRTVAAPSVFIFPPSDEQLKSGTASVVCLLNNFYPREAKVQWKVDNALQSGNSQESVTEQDSKDSTYSLSSTLTLSKADYEKHKVYACEVTHQGLSSPVTKSFNRGEC
notes: as for B2
As for B4, in assay [1], the “KD fold (SG1 = 1)” value was found to be 0.4 fold. For the same molecule, the Kd in [2] is 1100 nM; in assay [3], 14000 nM; in [4], 3100 nM; in [5] it was 910 nM; in [6], 1700 nM; in [7], 3300 nM. For the same molecule, the Kd was 54 nM in assay [8] and 70000 nM in [9].

B5: M103205H795-MY049/M103202L889-SK1 (antibody, human IgG1, kappa)
heavy: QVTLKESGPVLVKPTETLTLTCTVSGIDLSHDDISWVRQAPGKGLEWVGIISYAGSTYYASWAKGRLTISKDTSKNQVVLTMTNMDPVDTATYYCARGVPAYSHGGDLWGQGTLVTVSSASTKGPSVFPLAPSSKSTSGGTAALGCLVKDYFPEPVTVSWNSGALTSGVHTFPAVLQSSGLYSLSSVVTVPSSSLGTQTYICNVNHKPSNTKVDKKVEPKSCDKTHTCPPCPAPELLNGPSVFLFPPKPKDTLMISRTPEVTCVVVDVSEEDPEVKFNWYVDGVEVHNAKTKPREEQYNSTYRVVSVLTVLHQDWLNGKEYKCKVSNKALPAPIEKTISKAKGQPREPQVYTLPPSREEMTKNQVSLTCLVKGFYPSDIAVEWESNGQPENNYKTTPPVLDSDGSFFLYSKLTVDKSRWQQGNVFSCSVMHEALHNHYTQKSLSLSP
light: DIVMTQSPATLSLSPGERATLSCTSSQSVYHANWLSWFQQKPGQPPKLLIYWASTLAYGVPSRFSGSGSGTDFTLTISSLQPEDAATYYCAGGYGGGRYAFGQGTKVEIKRTVAAPSVFIFPPSDEQLKSGTASVVCLLNNFYPREAKVQWKVDNALQSGNSQESVTEQDSKDSTYSLSSTLTLSKADYEKHKVYACEVTHQGLSSPVTKSFNRGEC
notes: as for B2
For B5, the “KD fold (SG1 = 1)” value in assay [1] turned out to be 0.1 fold. For the same molecule, the Kd in assay [2] turned out to be 1800 nM; in assay [3], 2700 nM; in assay [4] it was 78000 nM; in assay [5] it was 850 nM; in assay [6], 2300 nM; in assay [7], 1500 nM. Besides, the Kd in [8] was 4600 nM; in [9], 6600 nM.

B6: M103205H795-MY047/M103202L889-SK1 (antibody, human IgG1, kappa)
heavy: not shown
light: DIVMTQSPATLSLSPGERATLSCTSSQSVYHANWLSWFQQKPGQPPKLLIYWASTLAYGVPSRFSGSGSGTDFTLTISSLQPEDAATYYCAGGYGGGRYAFGQGTKVEIKRTVAAPSVFIFPPSDEQLKSGTASVVCLLNNFYPREAKVQWKVDNALQSGNSQESVTEQDSKDSTYSLSSTLTLSKADYEKHKVYACEVTHQGLSSPVTKSFNRGEC
notes: as for B2
For B6, in assay [1], the “KD fold (SG1 = 1)” value worked out at 0.5 fold. In addition, the Kd in [2] came to 2800 nM; in assay [3], 4800 nM; in [4], 88 nM; in [5] it was 2600 nM; in assay [6], 3400 nM; in [7], 3700 nM. In addition, the Kd in assay [8] is 7800 nM; in assay [9], 24000 nM.

B7: M103205H795-MY051/M103202L889-SK1 (antibody, human IgG1, kappa)
heavy: QVTLKESGPVLVKPTETLTLTCTVSGIDLSHDDISWVRQAPGKGLEWVGIISYAGSTYYASWAKGRLTISKDTSKNQVVLTMTNMDPVDTATYYCARGVPAYSHGGDLWGQGTLVTVSSASTKGPSVFPLAPSSKSTSGGTAALGCLVKDYFPEPVTVSWNSGALTSGVHTFPAVLQSSGLYSLSSVVTVPSSSLGTQTYICNVNHKPSNTKVDKKVEPKSCDKTHTCPPCPAPELLNGPSVFLFPPKPKDTLMISRTPEVTCVVVDVSEEDGEVKFNWYVDGVEVHNAKTKPREEQYNSTYRVVSVLTVLHQDWLNGKEYKCKVSNKALPAPIEKTISKAKGQPREPQVYTLPPSREEMTKNQVSLTCLVKGFYPSDIAVEWESNGQPENNYKTTPPVLDSDGSFFLYSKLTVDKSRWQQGNVFSCSVMHEALHNHYTQKSLSLSP
light: DIVMTQSPATLSLSPGERATLSCTSSQSVYHANWLSWFQQKPGQPPKLLIYWASTLAYGVPSRFSGSGSGTDFTLTISSLQPEDAATYYCAGGYGGGRYAFGQGTKVEIKRTVAAPSVFIFPPSDEQLKSGTASVVCLLNNFYPREAKVQWKVDNALQSGNSQESVTEQDSKDSTYSLSSTLTLSKADYEKHKVYACEVTHQGLSSPVTKSFNRGEC
notes: as for B2
In the case of B7, the “KD fold (SG1 = 1)” value in assay [1] came out at 0.4 fold. Further, the Kd in assay [2] was found to be 22000 nM; in [3], 4600 nM; in assay [4] it was 2800 nM; in [5], 1900 nM; in assay [6], 4800 nM; in assay [7], 2000 nM. The Kd in [8] came to 2100 nM; in assay [9], 18000 nM.
